Test results reported in patent US20200353078A1 (AstraZeneca / MedImmune, published 2020).
Like-named read-outs stand apart in the source and are kept apart here.

T1: Recombinant human IL-33 (construct not named in the example) (human, UniProt O95760 112-270, limits assumed)
T1 construct: also called Recombinant, enzymatically biotinylated human IL-33 (produced in-house); IL-33 (200 nM)
T1 sequence (looked up): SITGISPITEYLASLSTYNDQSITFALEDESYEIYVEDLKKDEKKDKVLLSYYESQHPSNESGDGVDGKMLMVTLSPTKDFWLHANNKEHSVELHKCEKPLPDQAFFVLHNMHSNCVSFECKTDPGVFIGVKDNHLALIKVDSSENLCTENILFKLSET

T2: Endogenous human IL-33 (human, UniProt O95760 1-270, limits assumed)
T2 sequence (looked up): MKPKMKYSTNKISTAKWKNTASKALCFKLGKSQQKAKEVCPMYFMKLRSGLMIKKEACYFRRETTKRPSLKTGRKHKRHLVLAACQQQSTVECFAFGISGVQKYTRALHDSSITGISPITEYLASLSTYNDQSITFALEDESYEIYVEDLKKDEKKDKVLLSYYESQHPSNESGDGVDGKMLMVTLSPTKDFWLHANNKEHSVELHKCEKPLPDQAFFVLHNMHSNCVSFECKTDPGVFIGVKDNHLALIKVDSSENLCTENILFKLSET

T3: His10/Avi Human IL33-01 (human)
T3 chain: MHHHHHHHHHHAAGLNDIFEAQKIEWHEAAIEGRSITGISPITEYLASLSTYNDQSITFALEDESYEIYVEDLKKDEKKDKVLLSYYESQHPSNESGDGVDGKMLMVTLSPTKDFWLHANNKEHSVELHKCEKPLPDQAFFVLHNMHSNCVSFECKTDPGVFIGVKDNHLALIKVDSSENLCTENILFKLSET

B1: 33_640087-7B IgG1 (antibody, V domains shown)
VH: EVQLLESGGGLVQPGGSLRLSCAASGFTFSSYAMSWVRQAPGKGLEWVSGISAIDQSTYYADSVKGRFTISRDNSKNTLYLQMNSLRAEDTAVYYCARQKFMQLWGGGLRYPFGYWGQGTMVTVSS
VL: SYVLTQPPSVSVSPGQTASITCSGEGMGDKYAAWYQQKPGQSPVLVIYRDTKRPSGIPERFSGSNSGNTATLTISGTQAMDEADYYCGVIQDNTGVFGGGTKLTVL
notes: IgG1
B2: Human IL-33 Flag®His (ligand)
chain: SITGISPITEYLASLSTYNDQSITFALEDESYEIYVEDLKKDEKKDKVLLSYYESQHPSNESGDGVDGKMLMVTLSPTKDFWLHANNKEHSVELHKCEKPLPDQAFFVLHNMHSNCVSFECKTDPGVFIGVKDNHLALIKVDSSENLCTENILFKLSETNPAFLYKVVGAADYKDDDDKAAHHHHHHHHHH
notes: Mature IL-33 with C-terminal FLAG 10xHis tag, from E. coli; biotinylated via free cysteines where used biotinylated; also called Mature Human IL-33_FH; human IL-33 FH

Tests used:
[1] = target: T1, Recombinant human IL-33 (construct not …); assay: KinExA 3200, IgG at 5 pM and 500 fM equilibrated with IL-33, 25 C
Experimental: The affinity of the antibody 33_640087-7B was measured by kinetic exclusion assays performed on the KinExA 3200. The sampling beads were prepared by mixing 200 mg of dry UltraLink Biosupport Azlactone beads with 110 μg of IL-33 (as mentioned previously) in 2.5 ml of 50 mM sodium hydrogen bicarbonate pH 8.4 at room temperature for 2 hours with constant agitation. The beads were rinsed and blocked with 10 mg/ml BSA in 1M Tris pH 8.7. Prior to use, the beads were resuspended into D-PBS, 0.02% sodium azide. 33_640087-7B/IL-33 equilibrium mixtures were prepared in sample buffer composed of 1 mg/ml BSA, 0.02% sodium azide in DPBS (Dulbecco's PBS). […] The fluorescent secondary detection reagent was Alexa Fluor 647 goat anti-human-Fc diluted in 1 mg/ml BSA, 0.02% sodium azide, 0.1% Tween 20 in DPBS. The samples were run on the KinExA whilst housed in a temperature controlled cabinet set at 25° C. The data was analysed using the KinExA Pro software version 4.1.11.

[2] = target: T2, Endogenous human IL-33; assay: cell-based or functional assay
[3] = target: T3, His10/Avi Human IL33-01; assay: cell-based or functional assay
[4] = target: T3, His10/Avi Human IL33-01; assay: HTRF competition: purified IgG against FLAG-His human ST2 for biotinylated IL33-01, overnight incubation
[5] = target: T4, 33v20064 IgG1; assay: HTRF: unlabelled test protein competes with biotinylated human IL33-01 for DyLight labelled 33v20064 IgG
T4 construct: IgG1; also called ZZ1EBX-E05
T4 sequence (VL, as listed by the source): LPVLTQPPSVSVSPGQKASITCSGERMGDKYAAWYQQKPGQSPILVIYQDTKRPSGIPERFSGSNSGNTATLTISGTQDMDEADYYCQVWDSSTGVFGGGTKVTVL
Experimental: (§1) Human, cyno and mouse IL-33 FLAG® His (described in Example 1) were tested for inhibition of human IL-33 binding to DyLight labelled 33v20064 by adding 5 microlitres of each dilution of IL-33 sample to a 384 well low volume assay plate (Costar, 3673). […] This was followed by the addition of 2.5 microlitres of a solution containing 1.2 nM biotinylated human IL-33-01 combined with 1.5 nM streptavidin cryptate detection (Cisbio International, 610SAKLB). All dilutions were performed in assay buffer containing 0.8 M potassium fluoride (VWR, 26820.236) and 0.1% bovine serum albumin (BSA, PAA, K05-013) in Dulbeccos PBS (Invitrogen, 14190185). Assay plates were incubated for 1 hour at room temperature and time resolved fluorescence was read at 620 nm and 665 nm emission wavelengths using an EnVision plate reader (Perkin Elmer). Data were analysed by calculating the 665/620 nm ratio followed by the % Delta F values for each sample. The 665/620 nm ratio was used to correct for sample interference using Equation 1. The % Delta F for each sample was then calculated using Equation 2. The negative control (non-specific binding) was defined by replacing biotinylated human IL-33 combined with streptavidin cryptate detection with streptavidin cryptate detection only. […] IC₅₀ values were determined using GraphPad Prism software by curve fitting using a four-parameter logistic equation (Equation 4).

[6] = target: T4, 33v20064 IgG1; assay: as above; remark: listed apart in the source
Experimental: as §1

[7] = target: B1; assay: HTRF: unlabelled test protein competes with biotinylated human IL33-01 for DyLight650 labelled 33_640087-7B IgG
Experimental: Human, cyno and mouse IL-33 FLAG® His (described in Example 1 and Table 21), Human IL-1 alpha and IL-1 beta (R&D Systems) (Table 21) or rat IL-33 (GenScript) were tested for inhibition of human IL-33 binding to DyLight650 labelled 33_640087-7B or DyLight650 labelled 33_640237-2B by adding 5 microlitres of each dilution of sample to a 384 well low volume assay plate (Costar, 3673). […] This was followed by the addition of 2.5 microlitres of a solution containing 0.12 nM biotinylated human IL-33-01 combined with 0.75 nM streptavidin cryptate detection (Cisbio International, 610SAKLB). All dilutions were performed in assay buffer containing 0.8 M potassium fluoride (VWR, 26820.236) and 0.1% bovine serum albumin (BSA, PAA, K05-013) in Dulbeccos PBS (Invitrogen, 14190185). Assay plates were incubated for 4 hours at room temperature followed by 18 hours at 4 degrees Celsius and time resolved fluorescence was read at 620 nm and 665 nm emission wavelengths using an EnVision plate reader (Perkin Elmer). Data were analysed by calculating the 665/620 nm ratio followed by the % Delta F values for each sample. The 665/620 nm ratio was used to correct for sample interference using Equation 1. The % Delta F for each sample was then calculated using Equation 2. […] IC₅₀ values were determined using GraphPad Prism software by curve fitting using a four-parameter logistic equation (Equation 4).

[8] = target: T5, 33_640237-2B IgG1; assay: HTRF: unlabelled test protein competes with biotinylated human IL33-01 for DyLight650 labelled 33_640237-2B IgG
T5 construct: IgG1
Experimental: Human, cyno and mouse IL-33 FLAG® His (described in Example 1 and Table 21), Human IL-1 alpha and IL-1 beta (R&D Systems) (Table 21) or rat IL-33 (GenScript) were tested for inhibition of human IL-33 binding to DyLight650 labelled 33_640087-7B or DyLight650 labelled 33_640237-2B by adding 5 microlitres of each dilution of sample to a 384 well low volume assay plate (Costar, 3673). […] This was followed by the addition of 2.5 microlitres of a solution containing 0.12 nM biotinylated human IL-33-01 combined with 0.75 nM streptavidin cryptate detection (Cisbio International, 610SAKLB). All dilutions were performed in assay buffer containing 0.8 M potassium fluoride (VWR, 26820.236) and 0.1% bovine serum albumin (BSA, PAA, K05-013) in Dulbeccos PBS (Invitrogen, 14190185). Assay plates were incubated for 4 hours at room temperature followed by 18 hours at 4 degrees Celsius and time resolved fluorescence was read at 620 nm and 665 nm emission wavelengths using an EnVision plate reader (Perkin Elmer). Data were analysed by calculating the 665/620 nm ratio followed by the % Delta F values for each sample. The 665/620 nm ratio was used to correct for sample interference using Equation 1. The % Delta F for each sample was then calculated using Equation 2. The negative control (non-specific binding) was defined by replacing biotinylated human IL-33 combined with streptavidin cryptate detection with streptavidin cryptate detection only. The % Delta F values were subsequently used to calculate % specific binding as described in Equation 3. IC₅₀ values were determined using GraphPad Prism software by curve fitting using a four-parameter logistic equation (Equation 4).

Binder	Kd [1]	IC50, Huvec IL-8 release stimulated by human lung lysate [2]	IC50 (nM) vs. His Avi IL-33, Huvec IL-8 assay [3]	IC50 (read off the curve) [4]	IC50 (read off the curve) [5]	IC50 (read off the curve) [6]	IC50 (read off the curve) [7]	IC50 (read off the curve) [8]
B1	0.03 pM	13 pM	0.046 nM	~400 pM	–	–	–	–
B2	–	–	–	–	~200000 pM	~100000 pM	~700 pM	~1000 pM
